Molecular target: Estrogen receptor alpha (UniProt P03372 P03372:1-595)
Test: EMSA; column gel, 30 min
Settings: tags: Invitrogen; label: IRDye 700 or Cy3; partially double-stranded; 3' single-stranded tag
Protocol: A similar result is obtained using recombinant estrogen receptor alpha (ER-alpha) protein. ER-alpha is obtained from INVITROGEN® and mixed with YZ11 (its specific probe) labeled with IR Dye 700. The mixture was then loaded on the column gel and run for 30 minutes (FIG. 10).

Sequence of Estrogen receptor alpha (P03372 whole entry, one chain of several): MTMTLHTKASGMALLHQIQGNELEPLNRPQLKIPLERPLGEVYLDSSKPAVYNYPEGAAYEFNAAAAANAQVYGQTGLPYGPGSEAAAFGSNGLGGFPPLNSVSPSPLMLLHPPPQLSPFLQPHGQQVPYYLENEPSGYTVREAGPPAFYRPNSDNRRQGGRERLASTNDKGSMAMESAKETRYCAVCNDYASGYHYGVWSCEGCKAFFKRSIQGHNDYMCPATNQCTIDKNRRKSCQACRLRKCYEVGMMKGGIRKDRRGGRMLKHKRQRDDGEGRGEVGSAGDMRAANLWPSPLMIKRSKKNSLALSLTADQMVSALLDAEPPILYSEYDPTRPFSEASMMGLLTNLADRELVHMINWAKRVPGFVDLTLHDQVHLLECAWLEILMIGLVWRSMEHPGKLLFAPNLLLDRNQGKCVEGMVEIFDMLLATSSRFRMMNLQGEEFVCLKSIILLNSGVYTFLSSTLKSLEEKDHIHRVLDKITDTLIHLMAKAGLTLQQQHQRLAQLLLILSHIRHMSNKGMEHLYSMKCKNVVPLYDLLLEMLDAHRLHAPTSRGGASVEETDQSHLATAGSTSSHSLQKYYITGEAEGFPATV

B1: YZ-11 (Table 17) (mixed)
DNA 1: CCTGCCAGGTCGCGCTGCCCTCCTTCTACCATGCCTTAGGAGAATTGTTTTGTTT
DNA 2: GGTAGAAGGAGGGCAGCGCGACCTGGCAGG
  binding result: binds
